The values that follow come from patent publication US20230103583A1 (NORTHWESTERN UNIVERSITY, published 2023).

The target of this experiment is Tie2 receptor on HUVEC (human, UniProt Q02763 23-1124). Put plainly: cell-based or functional assay.
Sequence of Tie2 receptor on HUVEC (Q02763 23-1124): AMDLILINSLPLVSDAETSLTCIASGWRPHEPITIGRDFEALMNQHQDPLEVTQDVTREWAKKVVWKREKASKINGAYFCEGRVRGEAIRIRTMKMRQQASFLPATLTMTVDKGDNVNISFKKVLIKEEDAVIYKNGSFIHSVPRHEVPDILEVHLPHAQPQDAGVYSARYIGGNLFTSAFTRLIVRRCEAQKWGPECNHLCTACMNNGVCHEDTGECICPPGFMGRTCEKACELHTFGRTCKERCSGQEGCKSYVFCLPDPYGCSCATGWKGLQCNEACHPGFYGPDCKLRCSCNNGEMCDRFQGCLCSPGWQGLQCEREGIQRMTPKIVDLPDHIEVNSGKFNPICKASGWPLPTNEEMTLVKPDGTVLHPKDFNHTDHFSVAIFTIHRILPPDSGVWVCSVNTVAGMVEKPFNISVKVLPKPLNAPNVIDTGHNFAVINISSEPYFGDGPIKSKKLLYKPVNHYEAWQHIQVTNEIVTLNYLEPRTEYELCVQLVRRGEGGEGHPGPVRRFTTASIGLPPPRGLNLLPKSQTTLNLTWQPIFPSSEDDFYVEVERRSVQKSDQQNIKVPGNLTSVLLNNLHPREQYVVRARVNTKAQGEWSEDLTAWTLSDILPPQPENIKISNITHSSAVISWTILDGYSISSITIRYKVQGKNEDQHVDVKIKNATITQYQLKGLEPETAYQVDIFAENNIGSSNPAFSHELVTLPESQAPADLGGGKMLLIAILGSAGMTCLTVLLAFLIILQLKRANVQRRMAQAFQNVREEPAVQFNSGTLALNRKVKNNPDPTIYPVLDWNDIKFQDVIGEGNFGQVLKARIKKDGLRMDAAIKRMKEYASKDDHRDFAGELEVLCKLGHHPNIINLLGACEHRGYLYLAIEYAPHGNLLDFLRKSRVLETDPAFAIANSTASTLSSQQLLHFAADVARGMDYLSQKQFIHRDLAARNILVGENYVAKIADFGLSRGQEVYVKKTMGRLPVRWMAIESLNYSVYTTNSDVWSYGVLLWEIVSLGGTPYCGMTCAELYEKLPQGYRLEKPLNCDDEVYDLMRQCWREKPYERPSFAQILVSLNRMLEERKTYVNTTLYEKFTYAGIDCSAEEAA

B1: ANG1-C4BP (ligand)
chain: KPFRDCADVYQAGFNKSGIYTIYINNMPEPKKVFCNMDVNGGGWTVIQHREDGSLDFQRGWKEYKMGFGNPSGEYWLGNEFIFAITSQRQYMLRIELMDWEGNRAYSQYDRFHIGNEKQNYRLYLKGHTGTAGKQSSLILHGADFSTKDADNDNCMCKCALMLTGGWWFDACGPSNLNGMFYTAGQNHGKLNGIKWHYFKGPSYSLRSTTMMIRPLDFGGGGSETPEGCEQVLTGKRLMQCLPNPEDVKMALEVYKLSLEIEQLELQRDSARQSTLDKELHHHHHH
As for B1, the “phospho-AKT (pAKT) EC50 in HUVEC treated for 20 minutes” value is 87 ng/mL.
